The record followed here is patent US20130022605A1.

The assay has as its target hen egg lysozyme (hen) (UniProt P00698). Put plainly: ELISA on HEL at 3 mg/ml, detection with 9e10 and anti mouse IgG-HRP.

hen egg lysozyme (hen), sequence (P00698 19-147): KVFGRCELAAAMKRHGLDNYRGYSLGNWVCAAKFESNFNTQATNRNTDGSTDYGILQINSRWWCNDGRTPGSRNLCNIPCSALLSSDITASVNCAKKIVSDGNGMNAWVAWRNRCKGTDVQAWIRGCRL

B1: VH Cκ chain expressed alone (TAR2-5 Cκ) (protein, not shown: small tags and cut ends)
chain: EVQLLESGGGLVQPGGSLRLSCAASGFTFDLYNMFWVRQAPGKGLEWVSFISQTGRLTWYADSVKGRFTISRDNSKNTLYLQMNSLRAEDTAVYYCAKTLEDFDYWGQGTLVTVSS
In turn, B1 returned an ELISA signal (background) of 0.069.
